According to article PMC3920732:
Several values for one entry are separate records, joined by “and”; a condition that tells them apart may be missing. Equal entries are not always repeated.

Target: α7/5HT3A chimaeric receptor (control, non-mutant)
Assay: radioligand binding

## 125I-labelled α-bungarotoxin (from UniProt P60615 22-95) (natural protein)
  Kd: 0.0115 µM and 0.0122 µM and 0.0081 µM
